Target: the molecule itself
Assay: crystal structure

B1: Atg11 residues 699-800 (Atg11_(699-800)) (domain or fragment, S. cerevisiae, UniProt Q12527 699-800, looked up)
chain: NNHQIQELESNVDDLLHQLQLLKEENNRKSMQISEMGKKISDLEVEKTAYRETLTNLNQELARLTNEEQSHRTEIFTLNASFKKQLNDIISQDNEKIEKLTG
- stoichiometry N: 2

Source: paper PMC7603899 (Journal of molecular biology, 2020)
